This note sets out measurements from publication PMC7728438.

Test [1] addresses PC-2 F604P (human polycystin-2 with the gain of function mutation F604P) (human) (UniProt Q13563).
Test [2] deals with native heteromeric PC-1/PC-2 polycystin complex of mIMCD-3 primary cilia (mouse (endogenous in mIMCD-3)) (UniProt O08852).
Test [3] shares this target. The source holds these as a separate data set.
Test [4] addresses PC-1^deltaNT/PC-2_(F604P) heteromer (UniProt P98161).

PC-1 N-terminal fragment NTF^263-535, sequence (P98161 263-535): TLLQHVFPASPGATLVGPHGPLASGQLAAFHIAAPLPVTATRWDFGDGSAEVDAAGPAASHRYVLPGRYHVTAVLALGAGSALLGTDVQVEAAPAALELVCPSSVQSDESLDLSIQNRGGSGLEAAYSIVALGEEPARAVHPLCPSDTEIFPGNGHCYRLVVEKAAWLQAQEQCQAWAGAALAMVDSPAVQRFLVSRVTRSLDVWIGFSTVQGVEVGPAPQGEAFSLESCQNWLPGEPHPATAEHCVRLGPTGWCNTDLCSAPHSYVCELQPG
PC-2 F604P (human polycystin-2 with the gain of function mutation F604P) (human), sequence (Q13563 whole entry F604P): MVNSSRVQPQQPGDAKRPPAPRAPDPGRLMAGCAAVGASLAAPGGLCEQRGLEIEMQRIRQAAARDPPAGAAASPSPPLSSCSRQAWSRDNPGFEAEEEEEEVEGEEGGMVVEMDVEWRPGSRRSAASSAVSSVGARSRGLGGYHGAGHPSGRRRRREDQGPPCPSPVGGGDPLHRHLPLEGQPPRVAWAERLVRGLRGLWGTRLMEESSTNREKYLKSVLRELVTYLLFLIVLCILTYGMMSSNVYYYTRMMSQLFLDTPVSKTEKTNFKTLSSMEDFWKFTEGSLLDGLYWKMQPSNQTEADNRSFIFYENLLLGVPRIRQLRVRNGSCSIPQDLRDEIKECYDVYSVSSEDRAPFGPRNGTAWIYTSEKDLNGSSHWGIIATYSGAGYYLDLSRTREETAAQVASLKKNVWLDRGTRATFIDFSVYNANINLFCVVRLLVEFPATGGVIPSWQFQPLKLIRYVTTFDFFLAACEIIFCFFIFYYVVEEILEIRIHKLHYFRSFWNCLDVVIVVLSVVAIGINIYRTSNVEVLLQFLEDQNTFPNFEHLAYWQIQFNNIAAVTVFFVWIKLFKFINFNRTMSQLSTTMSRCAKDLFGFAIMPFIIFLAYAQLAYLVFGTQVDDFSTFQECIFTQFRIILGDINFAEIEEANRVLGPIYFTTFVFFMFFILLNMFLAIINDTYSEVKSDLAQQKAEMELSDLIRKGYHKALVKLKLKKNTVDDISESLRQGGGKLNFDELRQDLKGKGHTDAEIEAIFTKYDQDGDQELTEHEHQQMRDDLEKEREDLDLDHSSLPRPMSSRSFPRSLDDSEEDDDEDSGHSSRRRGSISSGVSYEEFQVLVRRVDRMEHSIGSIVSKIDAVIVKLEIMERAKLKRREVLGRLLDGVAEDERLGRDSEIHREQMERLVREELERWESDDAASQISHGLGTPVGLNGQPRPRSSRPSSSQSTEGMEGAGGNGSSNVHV
PC-1^deltaNT/PC-2_(F604P) heteromer, sequence (P98161 other isoform, or with tags, fused parts or gaps F604P | F604P, chain 1 of 2): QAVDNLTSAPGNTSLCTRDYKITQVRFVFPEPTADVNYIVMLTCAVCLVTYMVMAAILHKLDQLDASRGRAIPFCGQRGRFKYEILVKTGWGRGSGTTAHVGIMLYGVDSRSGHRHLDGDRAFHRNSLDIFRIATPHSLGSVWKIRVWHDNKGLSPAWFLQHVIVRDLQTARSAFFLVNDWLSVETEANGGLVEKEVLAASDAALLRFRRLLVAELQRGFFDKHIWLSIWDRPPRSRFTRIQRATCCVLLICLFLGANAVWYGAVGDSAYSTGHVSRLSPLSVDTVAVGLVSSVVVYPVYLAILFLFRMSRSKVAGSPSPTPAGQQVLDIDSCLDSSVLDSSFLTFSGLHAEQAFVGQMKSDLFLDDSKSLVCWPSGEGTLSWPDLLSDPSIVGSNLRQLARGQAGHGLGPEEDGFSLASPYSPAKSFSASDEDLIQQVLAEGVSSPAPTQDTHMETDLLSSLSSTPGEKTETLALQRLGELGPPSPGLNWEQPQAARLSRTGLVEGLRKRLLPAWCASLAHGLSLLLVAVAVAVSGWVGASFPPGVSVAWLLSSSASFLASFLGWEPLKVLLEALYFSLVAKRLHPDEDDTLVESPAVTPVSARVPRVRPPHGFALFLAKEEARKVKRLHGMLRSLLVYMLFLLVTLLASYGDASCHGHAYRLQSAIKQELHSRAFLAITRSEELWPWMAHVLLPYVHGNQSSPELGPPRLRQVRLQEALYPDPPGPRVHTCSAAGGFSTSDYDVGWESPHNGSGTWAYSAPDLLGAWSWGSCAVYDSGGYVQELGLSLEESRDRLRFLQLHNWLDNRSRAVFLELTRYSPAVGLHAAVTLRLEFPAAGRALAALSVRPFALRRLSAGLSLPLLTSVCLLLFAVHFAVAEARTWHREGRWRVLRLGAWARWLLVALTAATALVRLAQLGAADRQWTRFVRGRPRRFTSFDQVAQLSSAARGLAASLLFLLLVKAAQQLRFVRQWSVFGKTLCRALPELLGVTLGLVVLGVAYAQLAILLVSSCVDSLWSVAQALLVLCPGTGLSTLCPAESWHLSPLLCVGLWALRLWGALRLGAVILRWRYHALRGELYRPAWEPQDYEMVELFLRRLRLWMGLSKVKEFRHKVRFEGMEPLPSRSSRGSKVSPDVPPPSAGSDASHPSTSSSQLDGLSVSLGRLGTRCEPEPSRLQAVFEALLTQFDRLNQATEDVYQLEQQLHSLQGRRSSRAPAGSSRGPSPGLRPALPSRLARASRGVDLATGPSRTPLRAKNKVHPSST
PC-1^deltaNT/PC-2_(F604P) heteromer, sequence (Q13563 whole entry F604P, chain 2 of 2, further chain): as the sequence (Q13563 whole entry F604P) above
PC-1 N-terminal fragment NTF^24-852, sequence (P98161 24-852): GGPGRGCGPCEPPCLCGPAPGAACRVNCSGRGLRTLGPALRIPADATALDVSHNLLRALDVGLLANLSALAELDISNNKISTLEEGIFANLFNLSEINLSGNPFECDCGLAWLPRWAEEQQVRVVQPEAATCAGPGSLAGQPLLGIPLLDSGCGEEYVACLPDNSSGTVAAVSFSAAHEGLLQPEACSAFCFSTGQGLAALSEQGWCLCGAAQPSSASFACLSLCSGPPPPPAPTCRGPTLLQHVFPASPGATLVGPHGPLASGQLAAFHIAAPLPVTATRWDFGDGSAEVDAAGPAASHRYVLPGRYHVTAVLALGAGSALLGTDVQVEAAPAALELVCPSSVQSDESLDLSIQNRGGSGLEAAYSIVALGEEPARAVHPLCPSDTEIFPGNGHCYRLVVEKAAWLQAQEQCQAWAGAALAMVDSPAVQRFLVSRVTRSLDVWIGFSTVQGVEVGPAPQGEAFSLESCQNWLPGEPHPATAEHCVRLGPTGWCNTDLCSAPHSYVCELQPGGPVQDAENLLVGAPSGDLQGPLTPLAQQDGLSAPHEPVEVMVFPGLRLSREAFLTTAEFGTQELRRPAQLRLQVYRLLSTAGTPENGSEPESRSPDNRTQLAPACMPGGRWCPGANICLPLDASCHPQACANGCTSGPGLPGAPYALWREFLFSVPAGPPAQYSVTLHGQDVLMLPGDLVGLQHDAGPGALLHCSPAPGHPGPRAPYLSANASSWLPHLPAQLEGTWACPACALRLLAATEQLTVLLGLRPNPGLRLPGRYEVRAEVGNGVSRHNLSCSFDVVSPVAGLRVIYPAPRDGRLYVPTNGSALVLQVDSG

Regarding “sPC-1 (human polycystin-1 with Ig kappa-chain secretion sequence and HA tag in place of its own signal peptide) (from UniProt P98161 24-4303) (receptor)”, in test [1], the relative open probability at -100 mV, whole-cell patch clamp, HEK293 cells came to 0.1; the whole-cell patch clamp current density at +100 mV, HEK293 cells co-expressing sPC-1 and PC-2 F604P (PC-2 F604P alone gave negligible currents) was determined as 123 pA/pF.

In the case of “sPC-1_(pore) (sPC-1 with R4100G, R4107G and H4111G) (from UniProt P98161 24-4303) (receptor)”, in test [1], the relative open probability at -100 mV, whole-cell patch clamp, HEK293 cells came to 0.3; the whole-cell patch clamp current density at +180 mV, HEK293 cells co-expressing sPC-1pore and PC-2 F604P came out at 71.1 pA/pF.

Consider “PC-1 N-terminal fragment NTF^263-535 (from UniProt P98161 263-535) (domain or fragment)”, for which the probability of single channel openings at negative membrane potentials, excised inside-out patches of mIMCD-3 primary cilia, 0.7 ug/mL (~50 nM) fragment in the pipette in test [2] stood at 5 fold. In addition, in test [3], the spike-like elevations of ciliary Ca2+ (Arl13b-mScarlet-GCaMP6s, TIRF microscopy) in mIMCD-3 cells after the fragment; none in untreated cells, with boiled fragment or in PC-2 knockout cells is > 0.35 ΔF/F. In test [4], this substance came in with an outward whole-cell currents of HEK293 cells expressing PC-1deltaNT/PC-2 F604P with the fragment in the bath solution (boiled fragment inactive) of 61.4 pA/pF.

With “PC-1 N-terminal fragment NTF^24-852 (from UniProt P98161 24-852) (domain or fragment)”, the outward whole-cell currents of HEK293 cells expressing PC-1deltaNT/PC-2 F604P with the fragment in the bath solution in test [4] came out at 65.5 pA/pF.
